According to patent US6710165B2, “IgE-dependent histamine-releasing factor-binding peptides” (priority 2000, dated 2004):

Tests used:
[1] = system: (Na,K)ATPase large cytoplasmic loop (CD3); experiment: Yeast 2-hybrid analysis of HRF binding to (Na,K)ATPase large cytoplasmic loop; parameters: species or system rat; details: CD3 of (Na,K)ATPase α1 and α2 subunits as bait
Source text: The total cytoplasmic RNA was extracted from rat skeletal muscle and then, cDNA library for yeast 2-hybrid analysis was constructed by using pJG4-5 vector. CD3 region of (Na,K)ATPase α2 subunit was inserted to LexA DNA binding domain (pEG202 vector) and the inserts were used as bait for screening. Positive clones activating reporter gene were selected and sequence analyzed by sequencing, restriction mapping and BLAST search. Among those clones, one clone had the completely identical sequence with HRF.
CD3 regions of (Na,K)ATPase α1 and 2 subunits were inserted to pEG202 vector and then, the interaction by isoforms was examined. Yeast cells containing LexAop-LEU2 and LexAop-LacZ reporter genes (EGY48/pSH18-34) were transformed with all the constructs as prepared above and then, grown in a selective medium plate.

[2] = system: (Na,K)ATPase large cytoplasmic loop; experiment: Coimmunoprecipitation in yeast cells; type: binding, rat
Description: In Glucosyl Ura-His-Trp- and galactosyl Ura-His-Trp-media, yeast cells transformed with the constructs prepared in Example 1 were grown, and the cells were harvested by centrifugation at 3,000×g for 5 minutes. The harvested cells were resuspended in yeast lysis buffer (YLB: 50 mM Tris pH 8.0, 5 mM MgCl2, 150 mM NaCl, 50 mM NaF, 2 mM ZnCl2, protease inhibitor cocktail) and subsequently, the suspension was added to glass beads and vortexed. Thereto was added RIPA buffer (10 mM Tris pH 8.0, 100 mM NaCl, 1 mM EDTA, 1% NP4O, 0.5% sodium deoxycholate, 0.1% SDS) and then, the whole mixture was centrifuged at 10,000×g, 4° C. for 30 minutes.
To the cell extracts as prepared above, IgG sorb (The Enzyme Center, Inc.) was added and then, the mixture was incubated at 4° C. for 30 minutes and centrifuged at 10,000×g for 5 minutes. Thereto was added affinity-purified anti-HA 12CA5 monoclonal antibodies and then, the resulting mixture was incubated for 3 hours or overnight at 4° C. 50% protein A agarose solution (Roche, USA) was added to the above immunocomplex and the whole mixture was incubated at 4° C. for 4 hours. After centrifugation for 5 seconds, the obtained pellets were washed with RIPA buffer and washing buffer (1 M NaCl, 10 mM Tris pH 8.0, 0.1% NP4O), respectively. The pellets were resuspended in 2×SDS sample buffer and then, the suspension was loaded onto SDS-PAGE gel. […]

(Na,K)ATPase = experiment: Inhibitory activity on (Na,K)ATPase (86Rb+ tracer, K+-uptake); type: cell-based; details: 10˜20 μg/ml HRF
Description: RBL-2H3 cells were cultivated and sensitized according to the same procedures as in Example 6 and then, washed three times with Krebs-Ringer buffer (KRP, 140 mM NaCl, 5 mM KCl, 10 mM Na2HPO4, 1 mM MgSO4, 1.4 mM CaCl2, 2.5 mM glucose, pH 7.4). Subsequently, the cells were incubated at 37° C. for 15 minutes and then, thereto was added 0.1% bovine serum albumin (BSA)-containing KRP buffer comprising 1 mM ouabain. ^86Rb^+([…], NEN) was used as a tracer and the cells were cultivated for 5˜10 minutes. 10˜20 µg/ml HRF was added thereto and K^+-uptake was measured for 5, 10 and 15 minutes, respectively.

RBL-2H3 cells = experiment: Intracellular Ca2+ concentration (Fluo-3-AM); type: cell-based
Description: RBL-2H3 cells were cultivated according to the same procedure as in Example 6 and then, washed with Krebs-Ringer buffer (KRH, 125 mM NaCl, 1.2 mM KH2PO4, 1.2 mM MgSO4, 6 mM glucose, 2 mM CaCl2, 25 mM Hepes, pH 7.4). Subsequently, they were incubated with 2 μM Fluo-3-AM (Molecular Probes, Eugene, Oreg.) and KRH buffer containing 0.2% BSA for 30 minutes and then, the culture was corrected with DMEM complete medium for 10˜30 minutes. Subsequently, the cells were washed with KRH buffer and sensitized according to the same procedure as in Example 6. After the sensitization, the cells were treated with HRF, anti-IgE (Serotec) and each inhibitor together with histamine releasing buffer (100 mM NaCl, 0.4 mM MgCl2, 5 mM KCl, 5.6 mM glucose, 0.1% BSA, 25 mM Hepes, pH 7.4) in the presence or absence of Ca^2+. The fluorescence of fluo-3AM was measured at 488/515 nm using laser scanning confocal microscope.

PC12 cells = experiment: Inhibition of HRF-stimulated dopamine release by HRF-binding peptide; type: cell-based; details: 15 μg/ml of HRF
Description: In order to confirm whether the peptides blocking histamine release by HRF also block neurotransmitters release in nerve cells, the peptide of SEQ ID No. 14 (p2) was tested for its effects on dopamine release stimulated by HRF according to the substantially same procedure as in Example 16.

B1: HRF: recombinant full-length rat HRF overexpressed in E. coli; protein consisting of 172 amino acids (protein)
chain: MIIYRDLISHDELFSDIYKIREIADGLCLEVEGKMVSRTEGAIDDSLIGGNASAEGPEGEGTESTVVTGVDIVMNHHLQETSFTKEAYKKYIKDYMKSLKGKLEEQKPERVKPFMTGAAEQIKHILANFNNYQFFIGENMNPDGMVALLDYREDGVTPFMIFFKDGLEMEKC
modifications: left off: small tags and cut ends
notes: recombinant full-length rat HRF overexpressed in E. coli; protein consisting of 172 amino acids
- HRF binding to (Na,K)ATPase CD3 in yeast 2-hybrid [1]: HRF receptor corresponds to large cytoplasmic loop (CD3) of (Na,K)ATPase
- interaction with (Na,K)ATPase large cytoplasmic loop, coimmunoprecipitation [2]: interaction between HRF and (Na,K)ATPase large cytoplasmic loop could be confirmed
- decrease of (Na,K)ATPase activity ((Na,K)ATPase; K+-uptake measured for 5 minutes): 10.8%
- decrease of (Na,K)ATPase activity ((Na,K)ATPase; K+-uptake measured for 10 minutes): 40.4%
- decrease of (Na,K)ATPase activity ((Na,K)ATPase; K+-uptake measured for 15 minutes): 50.7%
- effect on intracellular Ca2+ concentration (RBL-2H3 cells): intracellular Ca^2+ concentration was increased
- increase of dopamine release (PC12 cells): about 110%
